According to paper PMC10142695, “Expression and Characterization of 3,6-Dihydroxy-picolinic Acid Decarboxylase PicC of Bordetella bronchiseptica RB50” (Microorganisms, 2023):

Substrate: O=C(O)c1nc(O)ccc1O
Test: purified protein
Assay type: biochemical, Bordetella bronchiseptica
Settings: 50 mM PBS pH 7.4 (unit definition says pH 7.0), 25 °C, 0 to 300 μM 3,6DHPA, no added metal stated

B1: PicCRB50 (Bordetella bronchiseptica RB50) (protein)
chain: MTKVRKIAFEEHFTAVGFGDYSKAFVQHLDPGFAAELGARLTDFGAGRLAEMDAAGIDYAILSQTGPGVQGEPDAAVALRRARENNDFLAERIARHPDRFGGFAALPMHDPKTAAAELTRAVRELGFKGSLVNGHTNGVYYDDPAYDAFWEQMQELDVPLYLHPFDAYVLPHAYKGHPELAGATWGWGVETGTHALRLLFGGVFDRFPKLKIILGHMGEGLPFQRWRFDSRFAAYPYGVKLQRAPSEYIGSNILITTSGVCSHPTLVGAIAEMGAEAVMFSIDYPYESTALAVEFIESAPLDAATRELVCYGNAARLFKL
B1 showed a Km of 20.41 ± 2.60 µM and a kcat of 7.61 ± 0.53 S^−1.
